These results are taken from article PMC5093203 (Pharmaceutical Research, 2016).

Details of data set [1]: method as in 2 sources, ref 28 = [28]; PMID 22353017; doi:10.1021/mp200470c; 28. Gokarn YR McLean M Laue TM Effect of PEGylation on protein hydrodynamics Mol Pharm 2012 9 4 762 73 10.1021/mp200470c 22353017 ||| ref 28, 34, 35 = [28]; PMID 22353017; doi:10.1021/mp200470c; 28. Gokarn YR McLean M Laue TM Effect of PEGylation on protein hydrodynamics Mol Pharm 2012 9 4 762 73 10.1021/mp200470c 22353017 || [34]; PMID 23499718; doi:10.1016/j.jconrel.2013.03.006; 34. Kaminskas LM Ascher DB McLeod VM Herold MJ Le CP Sloan EK PEGylation of interferon alpha2 improves lymphatic exposure after subcutaneous and intravenous administration and improves antitumour effi || [35]; PMID 19686787; doi:10.1016/j.jconrel.2009.08.005; 35. Kaminskas LM Kota J McLeod VM Kelly BD Karellas P Porter CJ PEGylation of polylysine dendrimers improves absorption and lymphatic targeting following SC administration in rats J Controlled Release. The settings on record: 14.3-kDa egg white lysozyme with vs without 20-kDa PEG; cited from earlier work.

For data set [2] the following is noted: LDC sheep, SC commercially formulated human insulin; cited from earlier work.
Data set [3] is described as follows: Hydrodynamic size by dynamic light scattering (DLS). The class given is physicochemical. The settings on record: 25 ± 1°C, 90° scattering angle, 633 nm, ~85 μM in 1x PBS, viscosity-corrected.
Protocol: Weighed-samples of freeze-dried powder were dissolved in 1x phosphate-buffered saline (PBS) to a final concentration of ~85 μM. Concentrated protein stock solutions were diluted ~20-fold in 1 × PBS buffer to achieve a final concentration of ~85 μM. Protein concentrations (OD276 (1 mg/ml) = 1 for a 1 cm cuvette) were measured by NanoDrop (Thermo Fisher Scientific, Waltham, MA, USA). All samples were filtered through Whatman Anatop10™ low protein-binding filters (Whatman, Kent, UK) before the DLS experiments. Solution viscosity was measured by an m-VROC® (RheoSense, Inc., San Ramon, CA, USA) viscometer and light scattering data were corrected using the measured viscosity.
DLS measurements were carried out at 25 ± 1°C at a 90° scattering angle using an ALV/CGS-3 Compact Goniometer system with ALV/LSE-5003 Light Scattering Electronics and Multiple Tau Digital Correlator (ALV®-GmbH, Langen, Germany). The laser operating wavelength was 633 nm. The apparent hydrodynamic radius Rh was estimated via the Stoke-Einstein equation (Eq. 1):1 Rh=kBT/6πηD where, Rh is the apparent hydrodynamic radius (m), kB is the Boltzmann constant (kg^●m^2/s^2●K), T is the absolute temperature (K), η is the viscosity (kg/m•s), and D is the diffusion constant (m^2/s). DH is the apparent hydrodynamic diameter in nm or 2 Rhinnm . The viscosity measurement was performed with a solution concentration of 0.49 ± 0.02 mg/mL at 25°C. Viscosity mean and SD was determined from n ≥8 and reported as cP, (g/cm•s) = 10^−3 × Pa•s (kg/m•s)
A short description of data set [4]: Serum pharmacokinetics in lymph duct cannulated (LDC) sheep (IV, SC). Details: species or system merino sheep. The settings on record: in vivo. The protocol:
(§1) Surgery was performed under aseptic conditions.
(§2) Blood samples (3 mL) were collected into 4 mL serum collection tubes (Becton, Dickinson and Company, Scoresby, Victoria, Australia) at the following time points (hour): predose, […] (1 min, IV only), 0.083 (5 min, IV only), 0.25 (15 min, IV only), 0.5, 1, 2, 3 (SC LDC only), 4, 6, 8, 10, 12 (all IV and SC LDC), 18 (SC non-LDC only), 30 (all SC), 39 (SC non-LDC only), 48 (all SC), 54 (all SC), 72 (all SC), 96 (SC LDC only), and 120 (SC LDC only) hours postdose. The jugular cannula was flushed with heparinized saline (50 IU/mL) between samples to maintain patency. Blood samples were allowed to stand at room temperature for up to 1 h and were then centrifuged for 10 min 6000 rpm to separate serum.
(§3) Noncompartmental pharmacokinetic parameters for the rat study were determined using WinNonlin® professional v5.3 (Pharsight, St. Louis, MO, USA) and for the sheep study using Watson^TM (version 7.4.2 PRD872, Thermo Fisher Scientific, Inc). Concentrations below the lower limit of quantitation were assigned a value of zero and the zero result used in the calculation of means and standard deviation using MicroSoft® Office® Excel® 2010 (version 14.0.; Redmond, WA). Descriptive statistics were calculated as appropriate. SigmaPlot® v11 (Systsat Software, IC., San Jose, CA, USA) and Excel® were used for the graphics.

For data set [5] the following is noted: in vivo, sc.
Protocol: Using a parallel group design, BIL was administered by single dose SC injection to non-LDC control sheep and to LDC sheep with a surgically placed popliteal lymph duct cannula (Table I). Blood was collected in each group, and lymph was continuously collected in the LDC sheep. BIL was also administered by bolus IV injection to a separate group of non-LDC animals for determining bioavailability and PK linearity.
Surgery was performed under aseptic conditions. Castrated male merino sheep (H.M. Barty & Sons Merino Stud, Robinvale, Victoria, Australia) weighing 31–48 kg were used. […]
In LDC sheep, lymph samples were collected in pre-weighed tubes containing 10 μL/mL of 10% EDTA at the following time points: Predose, 0–1, 1–2, 2–3, 3–4, 4–5, 5–6, 6–7, 7–8, 8–9, 9–10, 10–11, 11–12, 12–24, 24–36, 36–48, 48–60, 60–72, 72–84, 84–96 h post dose. At each time interval, the amount of lymph collected was determined gravimetrically. […]
BIL concentrations in serum and lymph were determined by ELISA performed by the bioanalytical testing facility Charles River Laboratories Preclinical Services (Senneville, Quebec, Canada) as described previously for rat serum ([27]). The assay quantitation range for rat serum was 20 pM to 500 pM. Assay quantitation range for sheep serum was from 20 pM to 500 pM. […] The quantitation range for sheep lymph was also 20 to 500 pM. […]
On the set-up of data set [6]: species or system Sprague Dawley rats. The conditions noted are these: rat, in vivo, iv.
Protocol: The 5/6-nephrectomized and sham male Sprague Dawley rats were obtained from Taconic Farms (Albany, NY, USA). Animals were housed two per cage in polycarbonate cages with filter tops. Animals were maintained on a 12/12 h light/dark cycle (lights on at 6:00 AM). All animals received water and LabDiet 5001 (PMI Nutrition International, Brentwood, MO, USA) ad libitum. Animals were monitored daily during the 5-week time frame that allowed progression of the disease state. Seven weeks post-surgery, blood was collected by tail clip into serum tubes for measurement of serum creatinine and blood urea nitrogen. Three days later, urine was collected for 24 h from animals housed in metabolism cages. […]
BIL concentrations in serum and lymph were determined by ELISA performed by the bioanalytical testing facility Charles River Laboratories Preclinical Services (Senneville, Quebec, Canada) as described previously for rat serum ([27]). The assay quantitation range for rat serum was 20 pM to 500 pM. […] Samples above the upper limit of quantitation were diluted and reanalyzed to gain results within the calibrated range. […]
Noncompartmental pharmacokinetic parameters for the rat study were determined using WinNonlin® professional v5.3 (Pharsight, St. Louis, MO, USA) and for the sheep study using Watson^TM (version 7.4.2 PRD872, Thermo Fisher Scientific, Inc). […] Descriptive statistics were calculated as appropriate. […]
The nature of data set [7]: Serum pharmacokinetics in non-LDC sheep (IV, SC). In kind it is in vivo, merino sheep. As for the experimental part:
as §1, §2, §3

For data set [8] the following is noted: in vivo; cited from earlier work.
For data set [9] the following is noted: rat, in vivo, sc; cited from earlier work.
The mark [10] stands for this setting: non-LDC sheep, SC 120 nmol, serum, mean ± SD, N = 5.

As usually defined, the Cmax is the peak of the concentration-time curve. The term Tmax denotes the time at which the peak concentration occurs.

Marks after values point to notes of the source that are not given here. Where only a bound is given, the exact number is not on record here.

With “20-kDa PEG egg white lysozyme: 14.3-kDa egg white lysozyme with addition of 20-kDa PEG”, in [1], the hydrodynamic diameter is 9.6 nm.

Consider egg white lysozyme, for which the hydrodynamic diameter in data set [1] is listed as 4.0 nm.

With insulin, in [2], the “% of the insulin dose recovered in the peripheral lymph” value is reported as 17.3%. Further, in data set [3], the “apparent hydrodynamic diameter (DH)” value is reported as 2.1 nm.

For the substance insulin peglispro [BIL], the AUC0-t in data set [4] (iv, 120 nmol) was 0.1395 ± 0.0606932 µM·h; in data set [4] (sc, 120 nmol), 0.0025945 ± 0.0025636 µM·h; in data set [7] (in vivo, iv, 20 nmol), 0.0125667 ± 0.0018009 µM·h; in [7] (in vivo, iv, 40 nmol) it was 0.040075 ± 0.0124583 µM·h; in data set [7] (in vivo, iv, 120 nmol), 0.1116667 ± 0.0150444 µM·h; in data set [7] (in vivo, sc, 120 nmol), 0.14296 ± 0.0838207 µM·h. The C0 in [4] (iv, 120 nmol) is 70.175 ± 13.6001 nM; in [7] (in vivo, iv, 20 nmol), 11.133 ± 1.234 nM; in data set [7] (in vivo, iv, 40 nmol), 27.9 ± 6.124 nM; in [7] (in vivo, iv, 120 nmol), 60.4 ± 1.039 nM. Besides, the CL in data set [4] (iv, 120 nmol) is 0.37 ± 0.12 mL/min/kg; in data set [7] (in vivo, iv, 20 nmol), 0.70 ± 0.09 mL/min/kg; in data set [7] (in vivo, iv, 40 nmol), 0.53 ± 0.21 mL/min/kg; in data set [7] (in vivo, iv, 120 nmol), 0.47 ± 0.06 mL/min/kg. Further, the T1/2 in [4] (iv, 120 nmol) is 5.7 ± 2.1 h; in [4] (sc, 120 nmol), 4.6 ± 4.0^a hours; in data set [7] (in vivo, iv, 20 nmol), 1.6 ± 0.1 h; in data set [7] (in vivo, iv, 40 nmol) it was 2.8 ± 0.3 h; in data set [7] (in vivo, iv, 120 nmol), 3.3 ± 1.2 h; in data set [7] (setting [10]) it was 7.5 ± 5.1 h. Further, the Vdss in data set [4] (iv, 120 nmol) is recorded as 0.04 ± 0.01 L/kg; in data set [7] (in vivo, iv, 20 nmol), 0.05 ± 0.01 L/kg; in data set [7] (in vivo, iv, 40 nmol), 0.04 ± 0.01 L/kg; in data set [7] (in vivo, iv, 120 nmol) it was 0.07 ± 0.04 L/kg. Besides, the “% bioavailability” value in data set [4] (sc) is less than 2%; in data set [4] (sc, 120 nmol), 1.7%; in data set [7] (in vivo, sc), 123%. In addition, the maximum concentration (Cmax) in data set [4] (sc, 120 nmol) is 0.4153 ± 0.384 nM. The Tmax turned out to be 2.3 ± 1.0 h in data set [4] (sc, 120 nmol) and 2.4 ± 0.9 h in data set [7] (setting [10]). In [5], the “% of dose recovered in the peripheral lymph” value turned out to be 88%. For the same substance, in [6], the “clearance in sham versus 5/6-nephrectomized rats (in words)” value is on record as “similar”. In addition, the “PK properties in renal insufficiency (in words)” value in data set [8] is “unaffected”. Moreover, the “% of dose excreted unchanged in urine” value in [9] is recorded as 2.5%. Also, the “apparent hydrodynamic diameter (DH)” value in [3] amounted to 7.6 nm.

As for leptin, the “apparent hydrodynamic diameter (DH)” value in [3] amounted to 4.3 nm; in [3] (listed as Leptin), 4.2 nm.
